Biological target: human GLP-1 receptor (human) (UniProt P43220)
Test: cell-based or functional assay

human GLP-1 receptor (human), sequence (P43220 24-463): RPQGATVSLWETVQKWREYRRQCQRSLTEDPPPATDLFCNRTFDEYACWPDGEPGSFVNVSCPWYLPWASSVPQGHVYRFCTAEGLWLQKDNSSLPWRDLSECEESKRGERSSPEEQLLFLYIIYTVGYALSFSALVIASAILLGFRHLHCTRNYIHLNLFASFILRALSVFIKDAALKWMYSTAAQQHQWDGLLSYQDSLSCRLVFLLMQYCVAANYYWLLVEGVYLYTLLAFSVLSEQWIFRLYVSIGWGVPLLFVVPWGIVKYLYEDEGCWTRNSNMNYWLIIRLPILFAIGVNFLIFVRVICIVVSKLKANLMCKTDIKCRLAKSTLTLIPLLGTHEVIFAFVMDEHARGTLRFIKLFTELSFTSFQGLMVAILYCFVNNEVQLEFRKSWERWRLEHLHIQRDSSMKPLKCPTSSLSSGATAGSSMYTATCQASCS

Substance: Val^8-Glu^22-GLP-1(7-37)OH (peptide)
- In vitro activity relative to Val^8-GLP-1(7-37)OH (EC50 potency, CRE-BLAM β-lactamase reporter in HEK-293 cells expressing human GLP-1 receptor) (fold relative to Val^8-GLP-1(7-37)OH): 3.33

Substance: Val^8-Lys^22-GLP-1(7-37)OH (peptide)
- In vitro activity relative to Val^8-GLP-1(7-37)OH (EC50 potency, CRE-BLAM β-lactamase reporter in HEK-293 cells expressing human GLP-1 receptor) (fold relative to Val^8-GLP-1(7-37)OH): 1.22

Substance: Val^8-Tyr^12-GLP-1(7-37)OH (peptide)
- In vitro activity relative to Val^8-GLP-1(7-37)OH (EC50 potency, CRE-BLAM β-lactamase reporter in HEK-293 cells expressing human GLP-1 receptor) (fold relative to Val^8-GLP-1(7-37)OH): 1.73

Substance: Val^8-GLP-1(7-37)OH (peptide)
- In vitro activity relative to Val^8-GLP-1(7-37)OH (EC50 potency, CRE-BLAM β-lactamase reporter in HEK-293 cells expressing human GLP-1 receptor) (fold relative to Val^8-GLP-1(7-37)OH): 1

Substance: Gly^8-GLP-1(7-37)OH (peptide)
- In vitro activity relative to Val^8-GLP-1(7-37)OH (EC50 potency, CRE-BLAM β-lactamase reporter in HEK-293 cells expressing human GLP-1 receptor) (fold relative to Val^8-GLP-1(7-37)OH): 1.67

Substance: Val^8-GLP-1(7-36)NH2 (peptide)
- In vitro activity relative to Val^8-GLP-1(7-37)OH (EC50 potency, CRE-BLAM β-lactamase reporter in HEK-293 cells expressing human GLP-1 receptor) (fold relative to Val^8-GLP-1(7-37)OH): 1.06

Substance: Arg^34Lys^26-(N-ε-(γ-Glu(N-α-hexadecanoyl)))-GLP-1(7-37) (peptide)
- In vitro activity relative to Val^8-GLP-1(7-37)OH (EC50 potency, CRE-BLAM β-lactamase reporter in HEK-293 cells expressing human GLP-1 receptor) (fold relative to Val^8-GLP-1(7-37)OH): 1.92

Substance: Val^8-Arg^26-GLP-1(7-37)OH (peptide)
- In vitro activity relative to Val^8-GLP-1(7-37)OH (EC50 potency, CRE-BLAM β-lactamase reporter in HEK-293 cells expressing human GLP-1 receptor) (fold relative to Val^8-GLP-1(7-37)OH): 1.47

Substance: Val^8-Ala^27-GLP-1(7-37)OH (peptide)
- In vitro activity relative to Val^8-GLP-1(7-37)OH (EC50 potency, CRE-BLAM β-lactamase reporter in HEK-293 cells expressing human GLP-1 receptor) (fold relative to Val^8-GLP-1(7-37)OH): 1

Substance: Val^8-Trp^12-GLP-1(7-37)OH (peptide)
- In vitro activity relative to Val^8-GLP-1(7-37)OH (EC50 potency, CRE-BLAM β-lactamase reporter in HEK-293 cells expressing human GLP-1 receptor) (fold relative to Val^8-GLP-1(7-37)OH): 1.07

Substance: Val^8-Leu^16-GLP-1(7-37)OH (peptide)
- In vitro activity relative to Val^8-GLP-1(7-37)OH (EC50 potency, CRE-BLAM β-lactamase reporter in HEK-293 cells expressing human GLP-1 receptor) (fold relative to Val^8-GLP-1(7-37)OH): 1.13

Substance: GLP-1(7-37)OH (peptide)
- In vitro activity relative to Val^8-GLP-1(7-37)OH (EC50 potency, CRE-BLAM β-lactamase reporter in HEK-293 cells expressing human GLP-1 receptor) (fold relative to Val^8-GLP-1(7-37)OH): 2.06

From patent US20040053819A1
